Reference: patent publication US9526786B2, “Thermostabilization of proteins” (The Trustee of Columbia University in the City of New York, priority 2007, dated 2016)

Method: Analysis of CocE action on cocaine cleavage is performed by utilizing the spectroscopic properties of cocaine, which maximally absorbs light at a 240 nm wavelength. CocE activity is measured by monitoring for a decrease in signal at A240, using various concentrations of cocaine, and determining the initial rate of the decrease. From these values the Vmax of the enzyme can be determined. By pre-incubating the enzyme at 37° C. for various times before monitoring for activity, the half life of CocE at 37° C. can be calculated.
The initial rates (of decay) were determined by following the change in the intrinsic absorbance of cocaine at 240 nm (6700 M^1 cm^1)(Xie et al., 1999) using a SpectraMax Plus 384 UV plate reader (Molecular Devices, Sunnyvale, Calif.) using SOFTmax Pro software (Version 3.1.2). The reaction was initiated by adding 100 μL of a 2× enzyme solution (100 mM phosphate buffer, pH 7.4 and 300 mM NaCl) to 100 μL of a 2× cocaine solution (50 μg/mL enzyme, 100 mM Phosphate Buffer, pH 7.4 and 300 mM NaCl). All assays were performed with 100 μM DTT unless indicated otherwise. […] For stability measurements, wild type and mutant enzymes were diluted to 2× concentration and incubated at 37° C. for the times indicated. At the end of each time point, an aliquot was removed and kinetic behavior was observed as outlined above.
In vitro kinetic assays. […] Initial rates were then used to determine Michaelis-Menten parameters. To assess thermal stability, enzyme preparations were preincubated at 37° C. for various lengths of time, prior to measurement of residual activities (Table 1 and FIG. 23).

| Molecule | enhanced stabilization at 37° C. (data not shown) | Stability @ 37 (t1/2) [min] |
| --- | --- | --- |
| L169K/G173Q/T172R: CocE triple mutant (protein) MVDGNYSVASNVMVPMRDGVRLAVDLYRPDADGPVPVLLVRNPYDKFDVFAWSTQSTNWLEFVRDGYAVVIQDTRGLFASEGEFVPHVDDEADAEDTLSWILEQAWCDGNVGMFGVSYLGVTQWQAAVSGVGGLKAIAPSMASADLYRAPWYGPGGALSVEALLGWSAKIGRQLITSRSDARPEDAADFVQLAAILNDVAGAASVTPLAEQPLLGRLIPWVIDQVVDHPDNDESWQSISLFERLGGLATPALITAGWYDGFVGESLRTFVAVKDNADARLVVGPWSHSNLTGRNADRKFGIAATYPIQEATTMHKAFFDRHLRGETDALAGVPKVRLFVMGIDEWRDETDWPLPDTAYTPFYLGGSGAANTSTGGGTLSTSISGTESADTYLYDPADPVPSLGGTLLFHNGDNGPADQRPIHDRDDVLCYSTEVLTDPVEVTGTVSARLFVSSSAVDTDFTAKLVDVFPDGRAIALCDGIVRMRYRETLVNPTLIEAGEIYEVAIDMLATSNVFLPGHRIMVQVSSSNFPKYDRNSNTGGVIAREQLEEMCTAVNRIHRGPEHPSHIVLPIIKR | did not display an enhanced stabilization | – |
| G173Q: CocE mutant (protein, listed as Rhodococcus sp.) MVDGNYSVASNVMVPMRDGVRLAVDLYRPDADGPVPVLLVRNPYDKFDVFAWSTQSTNWLEFVRDGYAVVIQDTRGLFASEGEFVPHVDDEADAEDTLSWILEQAWCDGNVGMFGVSYLGVTQWQAAVSGVGGLKAIAPSMASADLYRAPWYGPGGALSVEALLGWSALIGTQLITSRSDARPEDAADFVQLAAILNDVAGAASVTPLAEQPLLGRLIPWVIDQVVDHPDNDESWQSISLFERLGGLATPALITAGWYDGFVGESLRTFVAVKDNADARLVVGPWSHSNLTGRNADRKFGIAATYPIQEATTMHKAFFDRHLRGETDALAGVPKVRLFVMGIDEWRDETDWPLPDTAYTPFYLGGSGAANTSTGGGTLSTSISGTESADTYLYDPADPVPSLGGTLLFHNGDNGPADQRPIHDRDDVLCYSTEVLTDPVEVTGTVSARLFVSSSAVDTDFTAKLVDVFPDGRAIALCDGIVRMRYRETLVNPTLIEAGEIYEVAIDMLATSNVFLPGHRIMVQVSSSNFPKYDRNSNTGGVIAREQLEEMCTAVNRIHRGPEHPSHIVLPIIKR | – | ~25 |
